Experimental data published in the supplement of paper PMC9170038.

System: MS2 coat protein
Experiment: apparent KD of MS2 coat protein; designed switch direction (-1 OFF switch, 1 ON switch): -1; higher = weaker reporter binding
Summary of the method: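 RNA switches sharing common flanks were transcribed by stalled E. coli RNA polymerase on Illumina chips. A doubling series of SNAP-549-labelled MS2 coat protein, from 0.7 or 1.5 nM to 3 µM, was applied in Tris-HCl pH 7.5 buffer with KCl, MgCl2, BSA, DTT, tRNA and Tween-20. Each step lasted 0.8–1.5 h at the bottom of the series and 10–20 min at the top. Normalised cluster fluorescence was curve-fitted, giving apparent KD as the per-design median over clusters.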

[1] = input ligand: microRNA oligo, concentration not stated
[2] = Eterna round: R95, input ligand: FMN 200 uM
[3] = Eterna round: R95, input ligand: microRNA oligo, concentration not stated
[4] = Eterna round: R95, input ligand: none

Sequence	apparent KD of MS2 coat protein (input ligand: FMN 200 uM) [nM]	apparent KD of MS2 coat protein [1] [nM]	apparent KD of MS2 coat protein (input ligand: none) [nM]	apparent KD of MS2 coat protein [2] [nM]	apparent KD of MS2 coat protein [3] [nM]	apparent KD of MS2 coat protein [4] [nM]
GUCAGCUCGUCAGGAUAUAUAUUAACAUGAGGAUCACCCAUGUAAGAUCAGCUUCGGCAGUUAAUAUAGAAGGGACGAGCUGAC [ENG2/14-B1] (Eterna round: R96, puzzle: Exclusion NG 2)	181	154	153	–	–	–
GUUACACAUGAGGAUCACCCAUGUGAGGAUAUGGAUUCGUUAGAAGUAGAAGAUGGAUCCAGAAGGCGCGUGAG [JR_Ex1_Sub079] (Eterna round: R97, puzzle: Exclusion 1)	160	–	62.7	–	–	–
AAUAACAAGCAGGUCCUAAACAUGAGGAUCACCCAUGUGCUCGUCUUGUAAAGUACUAUCACGAAAGUGAUAGUACA [Sensor 3, v1 - 60] (puzzle: Sensor v3, turn-off variant 1)	–	–	–	26.8	297	28.3
GGGUGUGAAGGAUAUACAUGAGGAUCACCCAUGUGAGAGGAGGAGGUUGAGGAGGUUGGUAGAAGGUCAGGAGG [JR_Exclusion3_Sub011] (Eterna round: R96, puzzle: Exclusion 3)	219	149	220	–	–	–
CAUACUCAAGUGAGGAUAUUGUCUCGGAUACGAAACAAGAAGGCACAUGAGGAUCACCCAUGUAGAGAGUAAAG [EX-4 Malc #30] (puzzle: Brourd's mod of Exclusion 4)	–	–	–	136	25.1	25.6
ACUGGUCGAGGAUAUACAUGACGUGCUUCGGCACGAGAUCUACAUGAGGAUCACCCAUGUAGAAGGCGACCAGU [E2/11-A2] (Eterna round: R97, puzzle: Exclusion 2)	735	–	65	–	–	–
GGUGAGAGCAAGGAUAUGCAGAAGUGAGAAAGUGCAGAAGGUGCUACAUGAGGAUCACCCAUGUUGGAUGUGUU [JR_E6_Sub015] (puzzle: Exclusion 6)	–	–	–	–	34.2	–
UAAUAUCUGCAGGAUAUCGGUGUAGCACGCGUAUGAGAAGGGCAGACAUGAGGAUCACCCAUGUAUUAUAUCCG [Eternabot (L2) Solution 39] (Eterna round: R97, puzzle: Exclusion 6)	34.8	–	24.5	–	–	–
UGUCAGAUGGUAGGAUAUCCAUAUCGAGUGACCCUUUCAUAACAUGAGGAUCACCCAUGUCGGUGGGAGAAGGGCCGUACGGUG [salish99_ExNG02_R04_024] (Eterna round: R96, puzzle: Exclusion NG 2)	27.1	29.6	36.2	–	–	–
GGUACUAACACGAAAGUGUUAGUACUAUAAGCUUGUGUUACAUGAGGAUCACCCAUGUCCUCAUAGGCUCGUCUUAU [JL-sv3-2.18 mat747 mod] (puzzle: Sensor v3, turn-off variant 2)	–	–	–	292	29.9	252
AAUAACAGAGGAUAUACUAUUUUAUGUGUUUGUUGUUUUGAACAUGAGGAUCACCCAUGUAGAAGGCUGAUUGA [JMF 80] (puzzle: Exclusion 2)	–	–	–	–	39.6	–
AAUAAGCUAGGAUAUACAUGAGGAUCACCCAUGUGAGGGCACCGCCGGCGCGGGCCCGGUAGAAGGAGCAAUAA [Exc;s3-IV] (puzzle: Exclusion 3)	–	–	–	–	16.1	–
CACGUCUGAGGAUAUCGUUUUUUGUACAUGAGGAUCACCCAUGUCCAAUUUUGUAUAUUACGAGAAGGCAGUGGAA [JR_E5_Sub090] (puzzle: Exclusion 5)	–	–	–	–	12.3	–
AAAUCGGAGGAGGAUAUGGUACAGGAAAUGGUGCCAGAAGGUUUCACAUGAGGAUCACCCAUGUCAAAUAGCGA [EX6 #60] (Eterna round: R97, puzzle: Exclusion 6)	19.1	–	27.1	–	–	–
GCAGCAACUCUAAUCAAACCAACAUGAGGAUCACCCAUGUCUCAGGAUAUGGUCUGGAUUACAGGCCAGAAGGGAGAAAGCUGC [Eli exng3 - 047] (Eterna round: R96, puzzle: Exclusion NG 3)	11.6	11.4	14.9	–	–	–
GUGGGUUACAUGAGGAUCACCCAUGUAUAGUGGGAAAAGAUAUAGGAUAUAAUAUAAAAAUUAUAUUAGAAGGAUAGAGACUAG [AK ExNG3-1.1] (Eterna round: R96, puzzle: Exclusion NG 3)	727	260	896	–	–	–
CCGGGCGCAGGAUAUACGUGGCCCAAAUAAAUAAUAACCACACAUGAGGAUCACCCAUGUAGAAGGGCGCCCGG [-26.59, -25.61 kcal, A 32%] (Eterna round: R97, puzzle: Exclusion 2)	116	–	49.9	–	–	–

Sequence	apparent KD of MS2 coat protein (input ligand: FMN 200 uM) [nM]	apparent KD of MS2 coat protein [1] [nM]	apparent KD of MS2 coat protein (input ligand: none) [nM]	apparent KD of MS2 coat protein [2] [nM]	apparent KD of MS2 coat protein [3] [nM]	apparent KD of MS2 coat protein [4] [nM]
CUCGCUGUAGGAUAUACAUAUGUCCUGUCAGCCGCGGCAGAACAUGAGGAUCACCCAUGUAGAAGGAUAGAGAG [Eternabot (Original) Solution 34] (Eterna round: R97, puzzle: Exclusion 2)	48.3	–	26.7	–	–	–
UUGUAUAUAGGAUAUGUAAGAAGAAACAUGAGGAUCACCCAUGUAGCCUCAAAUUUUAUGACAGAAGGAUAUGUUA [Default title] (Eterna round: R97, puzzle: Exclusion 5)	36.2	–	56	–	–	–
AAGAAACAUGAGGAUCACCCAUGUGAGGAUAUGAUAAAGAAAAGAAAAGAAAGAAGACUCAGAAGGCACAAAGG [salish99-ex1_r3_041] (puzzle: Exclusion 1)	–	–	–	31	26.7	28.9
AGUUGUUCAGGAUAUGAUGUAUGUUACAUGAGGAUCACCCAUGUAGGUCCUGGAUAUGUAUCAGAAGGGAAUAUCU [JR_Ex5_Sub059] (Eterna round: R97, puzzle: Exclusion 5)	40.8	–	32	–	–	–
CAAGCUUUGCGAGGAUAUGAUGGCCUAUAUGCCUCAGAAGGCGCAGAUACUUGAGGAUCACCCAAGUGAUGCAAAUACGAAAAU [Mutated MS2 EX1.17] (Eterna round: R96, puzzle: Exclusion NG 1)	71.3	17.4	20	–	–	–
UCACAGUGAGGAUAUUUAAAAUCGGAACCAGUUACCCGGAUGAAGAAGGCACAUGAGGAUCACCCAUGUGGACG [Eternabot (L2) Solution 14] (Eterna round: R97, puzzle: Exclusion 4)	16.7	–	15.3	–	–	–
UUUAUAUAUGAAGGAUAUACUUAACAUGAGGAUCACCCAUGUGGUGUUGUGAGUGAGUGAGUUUAGUAGAAGGUCAAUUCUUUU [JMF's solution 91] (Eterna round: R96, puzzle: Exclusion NG 2)	731	335	362	–	–	–
CUUUUGUGAGGAUAUCAGUAGUAAAAUAAUAAAAUUACUACUGAGAAGGCACAUGAGGAUCACCCAUGUUCCUC [salish99_ex4_r3_019] (puzzle: Exclusion 4)	–	–	–	–	36.4	–
CUGCUCCGUGUAGGAUAUCCCGGCAACCAACCGGGAGAAGGACAUGAGGAUCACCCAUGUAUGUUAUUAUCACGUGAAGCGUCC [Design 28] (Eterna round: R96, puzzle: Exclusion NG 1)	29	12.5	19.9	–	–	–
ACGACGUAAGGAUAUACAUGAGGAUCACCCAUGUGGAGAUCCAGAGGAGAGACCUGACGUAGAAGGUGCGUCGA [Eternabot (L2) Solution 87] (Eterna round: R97, puzzle: Exclusion 3)	286	–	1400	–	–	–
ACUUAUAGAGGAUAUACAGUUAAUUACAUGAGGAUCACCCAUGUUCUUCAAUGUAUAUAAGUAGAAGGCUAAGAAA [Mat - Exclusion 5 - Eli Mod - D5] (Eterna round: R97, puzzle: Exclusion 5)	58	–	13.5	–	–	–
CAGAAGCAAGGAUAUACAACGGGCCACAGAGCGAGAGGGCAACAUGAGGAUCACCCAUGUAGAAGGUGCGUAAC [Timaina] (puzzle: Exclusion 2)	–	–	–	47.5	97.4	74.4
CCAUGCACGCUGCGGUCCUACAUGAGGAUCACCCAUGUGGUCUGGUGGCGUGGGUCGCCGGACUUGGCUCGUCUUGA [salish99_S_TOV1_R5_022] (Eterna round: R97, puzzle: Sensor, turn-off variant 1)	25.6	–	24.7	–	–	–
AGGGAGUGAGGAUAUACGAAAUAAAAAGAAGGAAAAAAAGAGUAGAAGGCACAUGAGGAUCACCCAUGUGAGAA [milkweed 12] (Eterna round: R96, puzzle: Exclusion 4)	–	16.9	–	–	–	–
CCUCUACAUGAGGAUCACCCAUGUGAGGAUAUCAAAGCCGAAGCAAAUCUCCGGCCCAUGAGAAGGUGCAUGGA [EX1 A.9] (Eterna round: R97, puzzle: Exclusion 1)	87.4	–	19.5	–	–	–
ACAUGAGGAUCACCCAUGUCCGGCUGGUCUGUCUCGGCUGUCGAGGAUAUAGCACGGUAUCCGCGCUAGAAGGCGGGAGCCGGC [Aenatbe mod 89] (Eterna round: R96, puzzle: Exclusion NG 3)	99.5	34.6	47.4	–	–	–
ACAUGAGGAUCACCCAUGUGAAAACAAUGGCUGACUUUGAGAUAGGAUAUAUGUGCAUAUCAAACAUAGAAGGGUCAUUACUGG [Deportation 90 - Jieux - Exclusion NG 3] (Eterna round: R96, puzzle: Exclusion NG 3)	41.4	25.9	47.2	–	–	–
